Literature values as cited in article PMC8820802.

Test system: streptavidin
Details: 50 mM Tris-HCl pH 7.6, 10 mM MgCl2, 100 mM KCl, 10% glycerol, 0.05% NP-40, protease inhibitor; HEK293T lysate on streptavidin-Sepharose, 16 h, 4 C

| Substance | Kd [nM] |
| --- | --- |
| S1 aptamer | 79 |
| S1m aptamer | 29 |
